Results as given in patent US20150218244A1 (Hoffmann-La Roche, published 2015).

Assays:
[1] = target: T1, human IL-10R1 fused to an IgG Fc region, biotinylated (human, biotinylated (site not stated)); test: SPR, against IL-10 wild type
T1 construct: also called hu IL-10R1; IL-10R1-Fc
Method: (§1) The SPR assay set-up is depicted in FIG. 15. About 770 RU of the biotinylated human IL-10R1 fused to an IgG Fc region (see SEQ ID NO: 87) were captured on the neutravidin-derivatized chip matrix of an NLC chip along vertical channels at a concentration of 30 μg/ml and a flow rate of 30 μl/min for a contact time or 240 s. Binding to huIL10R1 was measured at 5 different analyte concentrations (50, 10, 2, 0.4, 0.08 nM) by injections in horizontal orientation at 50 μl/min, recording the association rate for 180 s, the dissociation rate for 600 s. Running buffer (PBST) was injected along the sixth channel to provide an “in-line” blank for referencing. Association rates (kₒₙ) and dissociation rates (koff) were calculated using a simple 1:1 Langmuir binding model (ProteOn Manager software version 2.1) by simultaneously fitting the association and dissociation sensorgrams. The equilibrium dissociation constant (KD) was calculated as the ratio koff/kₒₙ. As human IL-10R1 could not be regenerated without a loss of activity, the subsequent steps of ligand capture and analyte injection were performed channel per channel using a freshly immobilized sensorchip surface for every interaction.
A decreased affinity to the IL-10R1 may represent a distinct advantage when targeting IL-10 to inflamed tissues through fusion with an antibody. […]

[2] = target: T1, human IL-10R1 fused to an IgG Fc …; test: SPR (ProteOn XPR36, 25 C), about 770 RU biotinylated IL-10R1-Fc on NLC chip, his-tagged cytokine as analyte
Method: as §1
A decreased affinity to the IL-10R1 may represent a distinct advantage when targeting IL-10 to inflamed tissues through fusion with an antibody.

T1 sequence (chain, as listed by the source limits assumed): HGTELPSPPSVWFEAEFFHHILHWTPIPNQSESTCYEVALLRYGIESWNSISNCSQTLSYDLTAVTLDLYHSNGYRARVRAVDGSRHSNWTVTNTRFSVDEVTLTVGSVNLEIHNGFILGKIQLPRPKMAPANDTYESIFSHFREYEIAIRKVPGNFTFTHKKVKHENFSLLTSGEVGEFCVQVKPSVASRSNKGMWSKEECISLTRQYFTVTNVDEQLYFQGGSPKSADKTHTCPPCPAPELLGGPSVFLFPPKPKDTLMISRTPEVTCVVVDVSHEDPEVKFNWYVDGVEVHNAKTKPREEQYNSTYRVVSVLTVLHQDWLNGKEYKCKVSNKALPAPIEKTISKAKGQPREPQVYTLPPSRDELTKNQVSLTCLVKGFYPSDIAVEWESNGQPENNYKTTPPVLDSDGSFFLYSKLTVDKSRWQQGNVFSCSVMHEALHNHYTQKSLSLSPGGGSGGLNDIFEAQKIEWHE

fold reduction of affinity compared to IL-10 wild type [1] [fold] | Kd [2] [nM] | koff [2] [s⁻¹] | kon [2] [M⁻¹ s⁻¹] | Binder
10 | 0.476 | 0.000219 | 461000 | IL-10 (I87A)-his mutant cytokine (ligand, The entry already carries I87A; Purified as the dimeric cytokine; also called hu IL-10 (I87A)) SPGQGTQSENSCTHFPGNLPNMLRDLRDAFSRVKTFFQMKDQLDNLLLKESLLEDFKGYLGCQALSEMIQFYLEEVMPQAENQDPDAKAHVNSLGENLKTLRLRLRRCHRFLPCENKSKAVEQVKNAFNKLQEKGIYKAMSEFDIFINYIEAYMTMKIRNVDHHHHHH
2 | 0.0807 | 0.000184 | 2.28e+06 | IL-10 (R24A)-his mutant cytokine (ligand, The entry already carries R24A; Purified as the dimeric cytokine; also called hu IL-10 (R24A)) SPGQGTQSENSCTHFPGNLPNMLADLRDAFSRVKTFFQMKDQLDNLLLKESLLEDFKGYLGCQALSEMIQFYLEEVMPQAENQDPDIKAHVNSLGENLKTLRLRLRRCHRFLPCENKSKAVEQVKNAFNKLQEKGIYKAMSEFDIFINYIEAYMTMKIRNVDHHHHHH
